We go through one substance from patent US20260055162A1.

In experiment [1] the target is AA-SR-113 (SR-113), TIGIT ECD-TIGIT TM-CD3z ICD. Kind of experiment: cell-based or functional assay.
Experiment [2] deals with AA-SR-128 (SR-128), TIGIT ECD-CD28 TM-CD3z ICD. As to the kind of experiment: cell-based or functional assay.
AA-SR-128 (SR-128), TIGIT ECD-CD28 TM-CD3z ICD, sequence (chain, as listed by the source limits assumed, form in doubt): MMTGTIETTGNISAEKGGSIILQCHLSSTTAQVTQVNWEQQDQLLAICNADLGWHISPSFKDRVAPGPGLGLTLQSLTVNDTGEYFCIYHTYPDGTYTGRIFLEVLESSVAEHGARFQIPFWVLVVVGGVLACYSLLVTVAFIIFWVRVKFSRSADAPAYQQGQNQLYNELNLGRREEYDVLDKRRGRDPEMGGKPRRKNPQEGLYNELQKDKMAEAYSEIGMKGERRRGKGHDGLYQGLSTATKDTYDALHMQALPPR

AA-SR-113 (SR-113), TIGIT ECD-TIGIT TM-CD3z ICD, sequence (chain, as listed by the source limits assumed, form in doubt): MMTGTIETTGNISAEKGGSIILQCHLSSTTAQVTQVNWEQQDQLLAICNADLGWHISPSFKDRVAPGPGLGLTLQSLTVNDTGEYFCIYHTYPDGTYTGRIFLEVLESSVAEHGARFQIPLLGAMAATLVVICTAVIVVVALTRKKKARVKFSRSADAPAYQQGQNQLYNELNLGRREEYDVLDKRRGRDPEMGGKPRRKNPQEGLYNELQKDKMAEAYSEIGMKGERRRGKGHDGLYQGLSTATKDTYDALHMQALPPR

For anti-TIGIT mAb clone A15153G (antibody), in experiment [1], the CD69, fold-change of MFI over no stimulation, High (10 ug/mL) was determined as 17.1 fold; the CD69, fold-change of MFI over no stimulation, Low (0.4 ug/mL) is 7.2 fold; the CD69, fold-change of MFI over no stimulation, Med. (2 ug/mL) is 17.1 fold; the GFP, fold-change of MFI over no stimulation, High (10 ug/mL) amounted to 4.6 fold. In experiment [1], the GFP, fold-change of MFI over no stimulation, Low (0.4 ug/mL) was 0.9 fold and the GFP, fold-change of MFI over no stimulation, Med. (2 ug/mL) turned out to be 2.2 fold. In addition, in experiment [2], the CD69, fold-change of MFI over no stimulation, High (10 ug/mL) was 3.4 fold; the CD69, fold-change of MFI over no stimulation, Low (0.4 ug/mL) was determined as 1.2 fold; the CD69, fold-change of MFI over no stimulation, Med. (2 ug/mL) stood at 2.6 fold; the GFP, fold-change of MFI over no stimulation, High (10 ug/mL) is 1.7 fold. In experiment [2], the GFP, fold-change of MFI over no stimulation, Low (0.4 ug/mL) worked out at 0.6 fold and the GFP, fold-change of MFI over no stimulation, Med. (2 ug/mL) came to 1.2 fold.
